The values that follow come from US20250066503A1, “CELL INJURY INDUCING THERAPEUTIC DRUG FOR USE IN CANCER THERAPY” (CHUGAI SEIYAKU KABUSHIKI KAISHA, priority 2016, published 2025).

Usually Kd stands for the free concentration of one partner at which half of the binding sites on the other are occupied at equilibrium, for simple one-to-one binding.

This assay has as its target T1, soluble human CD3 epsilon chain (human, UniProt P07766 23-126).
T1 construct: also called CD3ε
Put plainly: SPR. (In general: In SPR one partner is held on a chip, and binding of the other changes the refractive index at the surface.)

Residue numbers refer to the chain shown, from its start.

T1 sequence (P07766 23-126 limits assumed): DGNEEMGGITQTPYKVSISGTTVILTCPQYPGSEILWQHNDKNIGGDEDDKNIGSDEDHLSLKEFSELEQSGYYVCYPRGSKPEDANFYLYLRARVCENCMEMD

B1: TR01H040-E22Hh/none-Hi-Kn010G3/L0200-k0 (antibody, V domains shown)
VH: QVQLVESGGGLVQPGRSLRLSCAASGFTFSNAWMHWVRQAPGKGLEWVAQIKDKSQNYATYYAESVKGRFTISRADSKNSIYLQMNSLKTEDTAVYYCRYVHYSASYGVDAWGQGTTVTVSS
VL: DIVMTQSPLSLPVTPGEPASISCRPSQSPVHSNRNTYLHWYQQKPGQAPRLLIYKVSNRFSGVPDRFSGSGSGTDFTLKISRVEAEDVGVYYCGQGTQVPYTFGQGTKLEIK
notes: one-arm
The molecule B1 registered a Kd of 28.7 nM.

B2: TR01H040-E22Hh/none-Hi-Kn010G3/L0241-k0 (antibody, V domains shown)
VH: B1 VH
VL: B1 VL with P25S, Q27E, S61W, G94Y
notes: one-arm
B2: the affinity, expressed as Kd, was 3.48 nM. This Kd is about 8.2-fold lower than that of the molecule before.

B3: TR01H040-E22Hh/none-Hi-Kn010G3/L0213-k0 (antibody, V domains shown)
VH: B1 VH
VL: B1 VL with P25S, L38I, S61R
notes: one-arm
In the case of B3, binding was characterised by a dissociation constant (Kd) of 20.1 nM.

B4: TR01H040-E22Hh/none-Hi-Kn010G3/L0246-k0 (antibody, V domains shown)
VH: B1 VH
VL: B1 VL with P25S, L38I, H39Q, G94S
notes: one-arm
Consider B4, for which the Kd came out at 92.8 nM.

B5: TR01H040-E22Hh/none-Hi-Kn010G3/L0224-k0 (antibody, V domains shown)
VH: B1 VH
VL: B1 VL with P25S, L38I, S61P, G94Y
notes: one-arm
B5 came in with an equilibrium dissociation constant (Kd) of 5.06 nM.

B6: TR01H040-E22Hh/none-Hi-Kn010G3/L0202-k0 (antibody, V domains shown)
VH: B1 VH
VL: B1 VL with P25S, N35W
notes: one-arm
Regarding B6, the Kd amounted to 61.9 nM.

B7: TR01H040-E22Hh/none-Hi-Kn010G3/L0238-k0 (antibody, V domains shown)
VH: B1 VH
VL: B1 VL with P25S, Q27E, S28P, G94Y
notes: one-arm
For B7, binding was put at a Kd of 2.91 nM.

B8: TR01H040-E22Hh/none-Hi-Kn010G3/L0236-k0 (antibody, V domains shown)
VH: B1 VH
VL: B1 VL with P25S, S28E, S61W, G94Y
notes: one-arm
Molecule B8 came in with a Kd of 5.64 nM.

B9: TR01H061-E22Hh/none-Hi-Kn010G3/L0215-k0 (antibody, V domains shown)
VH: B1 VH with S104A, A111I
VL: B1 VL with P25S, S28P, L38I
notes: one-arm
B9: the affinity, expressed as Kd, was 15.4 nM.

B10: TR01H040-E22Hh/none-Hi-Kn010G3/L0247-k0 (antibody, V domains shown)
VH: B1 VH
VL: B1 VL with P25S, L38I, H39Q, G94I
notes: one-arm
B10 returned a Kd of 100 nM.

B11: TR01H040-E22Hh/none-Hi-Kn010G3/L0250-k0 (antibody, V domains shown)
VH: B1 VH
VL: B1 VL with L38I, H39Q, G94I
notes: one-arm
B11 had an equilibrium dissociation constant (Kd) of 21.5 nM.

B12: TR01H040-E22Hh/none-Hi-Kn010G3/L0220-k0 (antibody, V domains shown)
VH: B1 VH
VL: B1 VL with P25S, S28P, P29L, S61R, G94Y
notes: one-arm
B12 had a Kd of 9.15 nM.

B13: TR01H040-E22Hh/none-Hi-Kn010G3/TR01L009-k0 (antibody, V domains shown)
VH: B1 VH
VL: B1 VL with P25S, P29L, Q42L, A48S, R50Q, S61R
notes: one-arm
B13 gave a Kd of 35.6 nM.

B14: TR01H040-E22Hh/none-Hi-Kn010G3/L0237-k0 (antibody, V domains shown)
VH: B1 VH
VL: B1 VL with P25S, S28E, L38I, G94Y
notes: one-arm
The molecule B14 showed a Kd of 10.2 nM.

B15: TR01H040-E22Hh/none-Hi-Kn010G3/L0249-k0 (antibody, V domains shown)
VH: B1 VH
VL: B1 VL with L38I, H39Q, G94S
notes: one-arm
On to B15, for which the affinity, expressed as Kd, was 111 nM.

B16: TR01H040-E22Hh/none-Hi-Kn010G3/L0214-k0 (antibody, V domains shown)
VH: B1 VH
VL: B1 VL with P25S, S28P, S61R
notes: one-arm
On to B16, for which the Kd turned out to be 20.2 nM.

B17: TR01H040-E22Hh/none-Hi-Kn010G3/L0233-k0 (antibody, V domains shown)
VH: B1 VH
VL: B1 VL with P25S, S28E, P29L
notes: one-arm
For the molecule B17, the Kd was 40.1 nM.

B18: TR01H040-E22Hh/none-Hi-Kn010G3/L0219-k0 (antibody, V domains shown)
VH: B1 VH
VL: B1 VL with P25S, P29L, L38I, S61R
notes: one-arm
B18 displayed a Kd of 39.4 nM.

B19: TR01H040-E22Hh/none-Hi-Kn010G3/TR01L008-k0 (antibody, V domains shown)
VH: B1 VH
VL: B1 VL with R24Q, P25A, Q27E, P29L, S61R
notes: one-arm
With B19, the Kd was 29.3 nM.

B20: TR01H040-E22Hh/none-Hi-Kn010G3/L0216-k0 (antibody, V domains shown)
VH: B1 VH
VL: B1 VL with P25S, S28P, P29L, S61R
notes: one-arm
B20 came in with a Kd of 25.3 nM.

B21: TR01H040-E22Hh/none-Hi-Kn010G3/L0217-k0 (antibody, V domains shown)
VH: B1 VH
VL: B1 VL with P29L, S61R
notes: one-arm
Regarding B21, the Kd amounted to 20.7 nM.

B22: TR01H040-E22Hh/none-Hi-Kn010G3/L0218-k0 (antibody, V domains shown)
VH: B1 VH
VL: B1 VL with P25S, P29L, S61R, G94Y
notes: one-arm
Turning to B22, the dissociation constant (Kd) turned out to be 8.2 nM.

B23: TR01H040-E22Hh/none-Hi-Kn010G3/L0262-k0 (antibody, V domains shown)
VH: B1 VH
VL: B1 VL with P25S, S28P, G94A
notes: one-arm
In turn, B23 returned a Kd of 18.1 nM.

B24: TR01H040-E22Hh/none-Hi-Kn010G3/L0240-k0 (antibody, V domains shown)
VH: B1 VH
VL: B1 VL with P25S, Q27E, G94Y
notes: one-arm
The molecule B24 displayed a Kd of 2.17 nM.

B25: TR01H040-E22Hh/none-Hi-Kn010G3/L0215-k0 (antibody, V domains shown)
VH: B1 VH
VL: B1 VL with P25S, S28P, L38I
notes: one-arm
B25: binding was characterised by a dissociation constant (Kd) of 33.7 nM.

B26: TR01H061-E22Hh/none-Hi-Kn010G3/L0226-k0 (antibody, V domains shown)
VH: B1 VH with S104A, A111I
VL: B1 VL with P25S, L38I, G94I
notes: one-arm
In the case of B26, the Kd was determined as 47.1 nM.

B27: TR01H067-E22Hh/none-Hi-Kn010G3/L0200-k0 (antibody, V domains shown)
VH: B1 VH with A75D, I81L, S104A
VL: B1 VL
notes: one-arm
B27 yielded a Kd of 60.3 nM.

B28: TR01H040-E22Hh/none-Hi-Kn010G3/L0210-k0 (antibody, V domains shown)
VH: B1 VH
VL: B1 VL with P25S, N35W, G94Y
notes: one-arm
In turn, B28 gave an equilibrium dissociation constant (Kd) of 5.06 nM.

B29: TR01H040-E22Hh/none-Hi-Kn010G3/L0235-k0 (antibody, V domains shown)
VH: B1 VH
VL: B1 VL with P25S, S28E, G94Y
notes: one-arm
As for B29, the Kd worked out at 2.81 nM.

B30: TR01H040-E22Hh/none-Hi-Kn010G3/L0227-k0 (antibody, V domains shown)
VH: B1 VH
VL: B1 VL with P25S, L38I, G94L
notes: one-arm
Molecule B30 displayed a Kd of 101 nM. This Kd lies about 36-fold higher than the previous one.

B31: TR01H040-E22Hh/none-Hi-Kn010G3/L0243-k0 (antibody, V domains shown)
VH: B1 VH
VL: B1 VL with P25S, Q27E, S28P, S61R
notes: one-arm
As for B31, the equilibrium dissociation constant (Kd) is 24.6 nM.

B32: TR01H040-E22Hh/none-Hi-Kn010G3/TR01L010-k0 (antibody, V domains shown)
VH: B1 VH
VL: B1 VL with P25S, P29L, S61R, L109V, K112E
notes: one-arm
B32 returned a Kd of 32.8 nM.

B33: TR01H040-E22Hh/none-Hi-Kn010G3/L0228-k0 (antibody, V domains shown)
VH: B1 VH
VL: B1 VL with P25S, L38I, G94V
notes: one-arm
Turning to B33, the Kd turned out to be 16 nM.

B34: TR01H040-E22Hh/none-Hi-Kn010G3/L0239-k0 (antibody, V domains shown)
VH: B1 VH
VL: B1 VL with P25S, Q27E, S61R
notes: one-arm
Regarding B34, the Kd turned out to be 23.1 nM. This Kd and that of the molecule before are within 1.5-fold of each other.

B35: TR01H040-E22Hh/none-Hi-Kn010G3/L0205-k0 (antibody, V domains shown)
VH: B1 VH
VL: B1 VL with P25S, S61W
notes: one-arm
The molecule B35 displayed a Kd of 34.2 nM. The Kd values of the last two molecules are within 1.5-fold of each other.

B36: TR01H040-E22Hh/none-Hi-Kn010G3/TR01L015-k0 (antibody, V domains shown)
VH: B1 VH
VL: B1 VL with P25S, Q42L, A48S, R50Q
notes: one-arm
B36 came in with a Kd of 39.5 nM.

B37: TR01H040-E22Hh/none-Hi-Kn010G3/L0207-k0 (antibody, V domains shown)
VH: B1 VH
VL: B1 VL with P25S, S61R, G94Y
notes: one-arm
Turning to B37, the Kd is 2.6 nM. This Kd lies about 15-fold lower than the previous one.

B38: TR01H040-E22Hh/none-Hi-Kn010G3/L0231-k0 (antibody, V domains shown)
VH: B1 VH
VL: B1 VL with P25S, L38I, G94Y, V99W
notes: one-arm
With B38, binding was characterised by a dissociation constant (Kd) of 7.75 nM.

B39: TR01H040-E22Hh/none-Hi-Kn010G3/L0242-k0 (antibody, V domains shown)
VH: B1 VH
VL: B1 VL with P25S, Q27E, L38I, G94Y
notes: one-arm
B39 displayed a dissociation constant (Kd) of 3.58 nM.

B40: TR01H040-E22Hh/none-Hi-Kn010G3/TR01L016-k0 (antibody, V domains shown)
VH: B1 VH
VL: B1 VL with P25S, Q42L, A48S, R50Q, G94Y
notes: one-arm
Consider B40, for which the Kd turned out to be 2.52 nM. The Kd values of the last two molecules are within 1.5-fold of each other.

B41: TR01H040-E22Hh/none-Hi-Kn010G3/L0234-k0 (antibody, V domains shown)
VH: B1 VH
VL: B1 VL with P25S, S28E, S61R
notes: one-arm
Consider B41, for which binding was characterised by a dissociation constant (Kd) of 24 nM.

B42: TR01H040-E22Hh/none-Hi-Kn010G3/L0248-k0 (antibody, V domains shown)
VH: B1 VH
VL: B1 VL with L38I, H39Q, G94Y
notes: one-arm
B42 showed an equilibrium dissociation constant (Kd) of 78.9 nM.

B43: TR01H040-E22Hh/none-Hi-Kn010G3/L0226-k0 (antibody, V domains shown)
VH: B1 VH
VL: B1 VL with P25S, L38I, G94I
notes: one-arm
B43 had a Kd of 80.1 nM.

B44: TR01H040-E22Hh/none-Hi-Kn010G3/L0223-k0 (antibody, V domains shown)
VH: B1 VH
VL: B1 VL with P25S, L38I, F60L, G94Y
notes: one-arm
In turn, B44 showed a Kd of 8.15 nM. Compared with the last molecule, the Kd is about 9.8-fold lower.

B45: TR01H040-E22Hh/none-Hi-Kn010G3/L0232-k0 (antibody, V domains shown)
VH: B1 VH
VL: B1 VL with P25S, Q27E, P29L
notes: one-arm
On to B45, for which the Kd was determined as 38.6 nM. This Kd is about 4.7-fold higher than that of the molecule before.

B46: TR01H061-E22Hh/none-Hi-Kn010G3/L0200-k0 (antibody, V domains shown)
VH: B1 VH with S104A, A111I
VL: B1 VL
notes: one-arm
B46 showed a Kd of 12.7 nM.
